Experiment [1] concerns the target T1, Human B7-H3 (human, UniProt Q5ZPR3 29-461, limits assumed).
T1 construct: also called human B7-H3 protein; CD276
T1 sequence (looked up): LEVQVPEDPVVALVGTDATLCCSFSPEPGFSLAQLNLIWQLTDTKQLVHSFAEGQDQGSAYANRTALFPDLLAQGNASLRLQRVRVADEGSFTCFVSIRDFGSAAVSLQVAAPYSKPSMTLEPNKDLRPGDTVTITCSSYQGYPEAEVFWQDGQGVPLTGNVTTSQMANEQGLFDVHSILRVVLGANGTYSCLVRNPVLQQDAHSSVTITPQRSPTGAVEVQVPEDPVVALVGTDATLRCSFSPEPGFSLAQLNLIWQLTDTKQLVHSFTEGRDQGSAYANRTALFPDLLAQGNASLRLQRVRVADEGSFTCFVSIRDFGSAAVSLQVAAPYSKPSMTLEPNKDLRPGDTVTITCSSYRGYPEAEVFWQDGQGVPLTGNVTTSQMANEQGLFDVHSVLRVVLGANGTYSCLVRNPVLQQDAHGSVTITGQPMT
The experiment can be described thus: surface plasmon resonance. (SPR reads the build-up and loss of mass on a sensor chip optically.)

Experiment [2] addresses T2, Mouse B7-H3 (mouse, UniProt Q8VE98 29-244, limits assumed).
T2 construct: also called mouse B7-H3 protein
T2 sequence (looked up): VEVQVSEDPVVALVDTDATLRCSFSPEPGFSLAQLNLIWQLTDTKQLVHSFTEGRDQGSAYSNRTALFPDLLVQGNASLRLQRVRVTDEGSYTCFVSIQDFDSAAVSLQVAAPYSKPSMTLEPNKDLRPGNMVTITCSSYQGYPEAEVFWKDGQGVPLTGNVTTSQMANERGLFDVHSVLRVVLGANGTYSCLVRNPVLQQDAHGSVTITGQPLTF
The experiment can be described thus: surface plasmon resonance.

B1: 12B4 mAb (antibody, V domains shown)
VH: QVQLQQPGAELVKPGASVKLSCKASGYTFTSYWMHWVKQRPGQGLEWIGMIHPNSGSTNYNEKFKSKATLTVDKSSSTAYMQLSSLTSEDSAVYYCARYYYGSSYAMDYWGQGTSVTVS
VL: QIVLTQSPAIMSASPGEKVTITCSASSSVSYMHWFQQKPGTSPKLWIYSTSNLASGVPARFSGSGSGTSYSLTISRMEAEDAATYYCQQRSSYPYTFGGGTKLEIKR
notes: Mouse hybridoma mAb, IgG3 with kappa chain; also called 124; 1214
Take B1: the equilibrium dissociation constant (Kd) is 5.62 nM in experiment [1] and 1.71 nM in experiment [2].

B2: 24D12 mAb (antibody, V domains shown)
VH: QVQLQQPGAELVKPGASVKLSCKASGYTFTSYWMHWVKQRPGQGLEWIGMIHPNSGSTNYNEKFKSKATLTVDKSSSTAYMQLSSLTSEDSAVYYCANYYGTNVWGTGTTVTVS
VL: DIVLTQSPASLAVSLGQRATISYRASKSVSTSGYSYMHWNQQKPGQPPRLLIYLVSNLESGVPARFSGSGSGTDFTLNIHPVEEEDAATYYCQHIREAYTFGRG
As for B2, the Kd in experiment [1] came to 4.51 nM; in experiment [2], 1.76 nM.

B3: 8B12 mAb (antibody, V domains shown)
VH: QVQLQQPGAELVKPGASVKMSCKASGYTFTSYWITWVKQRPGQGLEWIGDIYPGSGSTNYNEKFKSKATLTVDTSSSTAYMQLSSLTSEDSAVYYCARGGTRFSPFAYWGQGTLVTVSA
VL: DVLMTQTPLSLPVSLGDQASISCRSSQSIVHSNGNTYLEWYLQKPGQSPKLLIYKVSNRFSGVPDRFSGSGSGTDFTLKISRVEAEDLGVYYCFQGSHVPWTFGGGTKLEIKR
notes: Mouse hybridoma mAb, IgG3 with kappa chain; also called 8K12; 81812
Turning to B3, the Kd in experiment [1] worked out at 0.32 nM; in experiment [2] it was 4.01 nM.

B4: 1G5 mAb (antibody, V domains shown)
VH: QVQLQQPGAELVKPGASVKLSCKASGYTFTSYWMHWVKQRPGQGLEWIGMIHPNSGSTNYNEKFKSKATLTVDKSSSTAYMQLSSLTSEDSAVYYCARGGYFDYWGQGTTLTVSS
VL: DIVMTQSQKFMSTSVGDRVSVTCKASQNVGTNVAWYQQKPGQSPKALIYSASYRYSGVPDRFTGSGSGTDFTLTISNVQSEDLAEYFCQQYNSYPYTFGGGTKLEIKR
notes: Mouse hybridoma mAb, IgG3 with kappa chain
For B4, the Kd was found to be 4.86 nM in experiment [1] and 0.81 nM in experiment [2].

B5: 15F9 mAb (antibody, V domains shown)
VH: QVQLQQPGAELVKPGASVKLSCKASGYTFTNYWMHWVKQRPGQGLEWIGMIHPNSGSTNYNEKFKSKATLTVDKSSSTAYMQLSSLTSEDSAVYYCARRGDGDYWGQGTTLTVSS
VL: DIQMTRHPSSLSASMGERVSLTCRASQEISGYLSWLQQKPDGTIKRLIYAASTLDSGVPKRFSGSRSGSDYSLTISSLESEDFADYYCLQYASYPYTFGGGTKLEI
notes: as for B4
As for B5, the Kd in experiment [1] was found to be 4.51 nM; in experiment [2] it was 1.76 nM.

B6: 23B2 mAb (antibody, V domains shown)
VH: QVQLQQPGAELVKPGASVKLSCKASGYTFTSYWMHWVKQRPGQGLEWIGMIHPNSGSTNYNEKFKSKATLTVDKSSSTAYMQLSSLTSEDSAVYYCARESRQLDYWGQGTTLTVSS
VL: QIVLTQSPAIMSASPGEKVTMTCSASSSISYMHWYQQKPGTSPKRWIYDTSKLASGVPARFSGSGSGTSYSLTISSMEAEDAATYYCHQRSSYPLTFGAGTKLELK
notes: Mouse hybridoma mAb, IgG1 with kappa chain; also called 231B2
As to B6, the figures for the Kd in experiment [1] and in experiment [2] were 11.1 nM and 10.2 nM, respectively.

What is called Kd is the equilibrium constant for the complex coming apart. Low readings indicate higher affinity, high ones lower affinity.

The values are drawn from US20250320269A1 (ALBERT EINSTEIN COLLEGE OF MEDICINE, published 2025).
